Measurements published in publication PMC6310021.

Target: purified rat recombinant TG2 protein (transgelin-2) (rat) (UniProt Q5XFX0)
Experiment: SPR

Chain of purified rat recombinant TG2 protein (transgelin-2) (rat) (Q5XFX0 whole entry): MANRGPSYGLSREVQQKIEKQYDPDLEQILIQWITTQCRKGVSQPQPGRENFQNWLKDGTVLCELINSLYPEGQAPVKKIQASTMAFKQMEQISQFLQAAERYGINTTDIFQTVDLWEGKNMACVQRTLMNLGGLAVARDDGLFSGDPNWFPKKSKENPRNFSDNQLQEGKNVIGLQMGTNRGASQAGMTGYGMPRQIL

Kd: 73.3 nM
Substance: ezrin (analyte in Biacore surface plasmon resonance) (from UniProt P31977 1-586) (natural protein)
